Measured values reported in patent publication US20250122303A1 (HUMMINGBIRD BIOSCIENCE PTE, published 2025).

Tests used:
His-tagged human HER3 [1] = molecular target: T1, His-tagged human HER3 (human, UniProt P21860 20-643); experiment: BLI (Octet QK384), antibody on anti-human IgG capture tips, His-tagged human HER3 in solution, global one-site fit
T1 construct: Antigen of the BLI experiments and of the HER2-Fc dimerisation ELISA; also called HER3 His; not shown: His tag
Method: The anti-HER3 antibody clones in IgG1 format were analysed for binding affinity to human HER3. Bio-Layer Interferometry (BLI) experiments were performed using the Octet QK384 system (ForteBio). anti-Human IgG Capture (AHC) Octet sensor tips (Pall ForteBio, USA) were used to anti-HER3 antibodies (25 nM). All measurements were performed at 25° C. with agitation at 1000 rpm. […] Sensograms were referenced for buffer effects and then fitted using the Octet QK384 user software (Pall ForteBio, USA). Kinetic responses were subjected to a global fitting using a one site binding model to obtain values for association (Kₒₙ), dissociation (Koff) rate constants and the equilibrium dissociation constant (KD). Only curves that could be reliably fitted with the software (R²>0.90) were included in the analysis.

His-tagged human HER3 [2] = molecular target: T1, His-tagged human HER3; experiment: plate ELISA dimerisation assay; HER2-Fc coated, constant HER3 His and NRG, antibody varied; blocked partner HER2-Fc
Method: Plate-based ELISA dimerisation assays were carried out according to standard protocols. Plates were coated with 1 μg/ml HER2-Fc protein. […] Plates were then washed and incubated for 1 hour with secondary anti-HIS HRP antibody. […] The absorbance was read at 450 nm.

[3] = molecular target: T2, human HER3 expressed on cells (HEK293 HER3 O/E cells) (human, UniProt P21860 20-1342); experiment: flow cytometry, HEK293 and HEK293 cells overexpressing human HER3, 20 ug/ml antibody, FITC anti-Fc secondary
T2 construct: Also used here for HER3 on U2OS cells of the PathHunter kit and on cancer cell lines; also called HEK293 cells transfected with vector encoding human HER3; human HER3-expressing cells
Method: The cells were washed thrice with FACS buffer (PBS with 5 mM EDTA and 0.5% BSA) and resuspended in FITC-conjugated anti-FC antibody (Invitrogen, USA) for 40 min at 2-8° C. Cells were washed again and resuspended in 200 μL of FACS flow buffer (PBS with 5 mM EDTA) for flow cytometric analysis using MACSQuant 10 (Miltenyi Biotec, Germany). After acquisition, all raw data were analyzed using Flowlogic software. Cells were gated using forward and side scatter profile percentage of positive cells was determined for native and overexpressing cell populations.

[4] = molecular target: T3, His-tagged FcγRIIIa (V158) (human, UniProt P08637 17-208); experiment: Bio-Layer Interferometry; His-tagged FcγRIIIa (V158) on anti-Penta-HIS tips, antibody in solution
T3 construct: not shown: His tag
Method: All measurements were performed at 25° C. with agitation at 1000 rpm. […] Sensograms were referenced for buffer effects and then fitted using the Octet QK384 user software (Pall ForteBio, USA). Kinetic responses were subjected to a global fitting using a one site binding model to obtain values for association (Kₒₙ), dissociation (Koff) rate constants and the equilibrium dissociation constant (KD). Only curves that could be reliably fitted with the software (R²>0.90) were included in the analysis.
BLI was performed as described above.

moFcRn = molecular target: T4, moFcRn (mouse, UniProt Q61559); experiment: Bio-Layer Interferometry (determined as described in Example 7)
T4 construct: recombinant; also called mouse FcRn; gene FCGRT (so in the source)
T4 sequence (receptor, looked up): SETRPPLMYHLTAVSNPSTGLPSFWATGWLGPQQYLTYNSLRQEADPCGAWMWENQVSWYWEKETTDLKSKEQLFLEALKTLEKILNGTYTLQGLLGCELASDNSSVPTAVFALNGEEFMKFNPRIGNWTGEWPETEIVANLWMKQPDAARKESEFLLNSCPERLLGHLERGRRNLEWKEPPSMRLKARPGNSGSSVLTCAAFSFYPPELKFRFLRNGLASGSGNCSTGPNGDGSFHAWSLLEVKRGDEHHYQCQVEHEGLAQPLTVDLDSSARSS
T4 sequence (looked up): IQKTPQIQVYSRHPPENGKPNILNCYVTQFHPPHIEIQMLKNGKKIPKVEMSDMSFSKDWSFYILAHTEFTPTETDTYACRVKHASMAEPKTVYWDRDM

FcRn = molecular target: T5, FcRn (human, UniProt P55899); experiment: as above
T5 construct: recombinant; also called human FcRn; gene FCGRT (so in the source)

moFcgRIV = molecular target: T6, moFcgRIV; experiment: as above
T6 construct: also called CD16-2; mFcγRIV
T6 chain: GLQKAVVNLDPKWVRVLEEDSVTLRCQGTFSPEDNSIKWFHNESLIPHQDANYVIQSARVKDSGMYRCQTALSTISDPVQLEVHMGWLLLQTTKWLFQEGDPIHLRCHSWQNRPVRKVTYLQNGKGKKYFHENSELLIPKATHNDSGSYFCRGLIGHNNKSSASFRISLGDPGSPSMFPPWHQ

His-tagged human HER3 [5] = molecular target: T1, His-tagged human HER3; experiment: Bio-Layer Interferometry (Octet QK384); antibody on anti-Human IgG Capture tips, HIS-tagged human HER3 at 30.3, 60.5, 121 and 242 nM
FcgRIIB = molecular target: T7, FcgRIIB (human, UniProt P31994); experiment: Bio-Layer Interferometry (determined as described in Example 7)
T7 construct: recombinant; also called CD32B; hFcγRIIb
T7 sequence (receptor, looked up): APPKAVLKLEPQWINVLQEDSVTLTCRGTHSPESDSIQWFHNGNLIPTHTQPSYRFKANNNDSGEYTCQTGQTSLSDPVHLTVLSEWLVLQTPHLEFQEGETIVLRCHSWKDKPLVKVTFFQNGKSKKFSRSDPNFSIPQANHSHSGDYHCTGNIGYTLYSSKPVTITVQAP

FcgRIIA (H167) = molecular target: T8, FcgRIIA (H167) (human, UniProt P12318); experiment: as above
T8 construct: recombinant; also called CD32A; hFcγRIIa167H
T8 sequence (receptor, looked up): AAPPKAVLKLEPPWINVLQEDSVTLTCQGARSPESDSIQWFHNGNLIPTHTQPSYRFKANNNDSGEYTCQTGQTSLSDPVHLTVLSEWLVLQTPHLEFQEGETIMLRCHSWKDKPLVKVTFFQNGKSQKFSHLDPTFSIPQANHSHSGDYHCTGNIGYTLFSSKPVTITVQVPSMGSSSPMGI

FcgRIIIA (F158) = molecular target: T9, FcgRIIIA (F158) (human, UniProt P08637); experiment: as above
T9 construct: recombinant; also called CD16A; hFcγRIIIa158F

FcgRIIA (R167) = molecular target: T10, FcgRIIA (R167) (human, UniProt P12318); experiment: as above
T10 construct: recombinant; also called CD32A; hFcγRIIa167R
T10 sequence (receptor, looked up): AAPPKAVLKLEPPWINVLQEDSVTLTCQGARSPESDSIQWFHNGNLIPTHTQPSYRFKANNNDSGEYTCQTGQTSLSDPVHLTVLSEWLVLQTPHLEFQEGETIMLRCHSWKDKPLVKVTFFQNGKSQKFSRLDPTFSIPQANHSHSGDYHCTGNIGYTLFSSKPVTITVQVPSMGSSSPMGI

[6] = molecular target: T3, His-tagged FcγRIIIa (V158); experiment: as above

B1: anti-HER3 clone 4-35-B4 IgG1 (antibody, V domains shown)
VH: EVQLQQSGAELVKPGASVKLSCTASGFNIKDTYIHWVKQRPDQGLEWIGKIIDPANGNTNYDPKFQGKATITADTSSNTAYLQLSSLSSEDTAVYFCARGLHWGQGTTLTVSS
VL: DIVLTQSPASLAVSLGQRATISCRASKSVSTSGYSYMHWYQQKPGQPPKLLIYLASNLESGVPARFSGSGSGTDFTLNIHPVEEEDAATYYCQHSRELPYTFGGGTKLEIKR
notes: Human-mouse chimeric IgG1/kappa
Q: How did the Kd (His-tagged human HER3 [1]) turn out when B1 was run?
A: 50.3 nM

B2: M-05-74 (antibody, V domains shown)
VH: QVQLQQSGAELAKPGASVKMSCKTSGYTLTDYWIHWVKQRPGQGLEWIGYINPYTGYTESNQKFKDKATLTADKSSNTAYIQLSSLTSEDSAVYYCARPYYYGDYWGQGTTLTVSS
VL: QIVLTQSPAIMSASPGERVTITCSASSSVSYMHWFQQKPGTSPKLLIYSTSNLASGVPARFSGSGSGTSYSLTISRMEAEDAATYYCQQRSSYPFTFGSGTKLEIK
Q: Which IC50 (His-tagged human HER3 [2]) does the source give for B2 here?
A: 80.2 nM

B3: anti-HER3 clone 10A6 IgG1 (antibody, V domains shown)
VH: DVQLQESGPGLVKPSQSLSLTCSVTGNFITSGYFWNWIRQFPGNKLEWMGFISYDGSNNYKPSLKNRISITRDTSKNQFFLKLNSVTTEDTATYYCARENYGFGFDYWGQGTTLTVSS
VL: DIVLTQSPSSLPVSIGEKVTMSCKSSQSLLYSDNQKNYLAWYQQKPGQSPKLLIYWASTWKSGVPDRFTGSGSGTDFTLTISSVKAEDLAVYYCQQYFTFPWTFGGGTKLEIKR
notes: as for B1
Q: Does B3 bind [3]?
A: binds

B4: 10D1 GASD variant (antibody, human IgG1, kappa)
heavy: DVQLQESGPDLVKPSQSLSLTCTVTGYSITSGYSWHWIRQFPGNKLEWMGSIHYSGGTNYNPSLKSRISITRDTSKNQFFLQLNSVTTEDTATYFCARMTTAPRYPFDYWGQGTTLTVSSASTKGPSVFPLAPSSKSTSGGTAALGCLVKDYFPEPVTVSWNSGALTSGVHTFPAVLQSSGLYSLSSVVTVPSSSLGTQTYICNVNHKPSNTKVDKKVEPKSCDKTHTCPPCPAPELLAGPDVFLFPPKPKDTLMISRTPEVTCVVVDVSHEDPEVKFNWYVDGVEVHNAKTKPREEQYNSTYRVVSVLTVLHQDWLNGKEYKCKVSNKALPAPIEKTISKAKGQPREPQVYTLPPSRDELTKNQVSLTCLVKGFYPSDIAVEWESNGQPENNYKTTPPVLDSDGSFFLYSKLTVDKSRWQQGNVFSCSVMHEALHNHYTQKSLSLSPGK
light: DIVMTQSQKFMSTSVGDRVSVTCKASQIVGSNVAWYQQKPGQSPKPLIYSASYRYSGVPDRFTASGSGTDFTLTITNVQSEDLAEYFCQQYSSHPLTFGAGTKLELKRTVAAPSVFIFPPSDEQLKSGTASVVCLLNNFYPREAKVQWKVDNALQSGNSQESVTEQDSKDSTYSLSSTLTLSKADYEKHKVYACEVTHQGLSSPVTKSFNRGEC
notes: also called Fc-modified anti-HER3 antibody clone 10D1 comprising GASD substitutions in CH2 region
Q: How did the Kd [4] turn out when B4 was run?
A: 58 nM

Q: What about the koff [4] of the same binder?
A: 0.009 s⁻¹

Q: What about the kon [4] of the same binder?
A: 160000 M⁻¹ s⁻¹

B5: 10D1F hIgG1 N297Q (antibody)
heavy chain: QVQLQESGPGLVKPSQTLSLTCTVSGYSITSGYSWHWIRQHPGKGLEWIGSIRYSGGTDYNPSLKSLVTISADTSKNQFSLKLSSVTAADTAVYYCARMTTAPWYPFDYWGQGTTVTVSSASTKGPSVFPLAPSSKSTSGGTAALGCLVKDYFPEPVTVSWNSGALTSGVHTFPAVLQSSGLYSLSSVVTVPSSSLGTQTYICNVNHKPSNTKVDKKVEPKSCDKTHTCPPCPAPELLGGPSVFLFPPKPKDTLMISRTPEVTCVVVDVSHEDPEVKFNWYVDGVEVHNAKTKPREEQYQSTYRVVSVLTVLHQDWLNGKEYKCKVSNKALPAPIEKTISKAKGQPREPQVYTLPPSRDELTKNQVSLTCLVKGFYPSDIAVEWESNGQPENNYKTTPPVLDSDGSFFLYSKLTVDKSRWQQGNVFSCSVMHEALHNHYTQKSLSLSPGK
light chain: DIQMTQSPSSVSASVGDRVTITCKASQIVGSNVAWYQQKPGKAPEPLIYSASYLYSGVPSRFSGSGSGTDFTLTISSLQPEDFATYYCQQYSSHPLTFGQGTKLEIKRTVAAPSVFIFPPSDEQLKSGTASVVCLLNNFYPREAKVQWKVDNALQSGNSQESVTEQDSKDSTYSLSSTLTLSKADYEKHKVYACEVTHQGLSSPVTKSFNRGEC
Q: With B5 as the binder, how does the Kd (moFcRn) read?
A: 13.7 nM

Q: And the Kd (FcRn)?
A: 54.6 nM

B6: 10D1F.FcB (antibody, human IgG1, kappa)
heavy: QVQLQESGPGLVKPSQTLSLTCTVSGYSITSGYSWHWIRQHPGKGLEWIGSIRYSGGTDYNPSLKSLVTISADTSKNQFSLKLSSVTAADTAVYYCARMTTAPWYPFDYWGQGTTVTVSSASTKGPSVFPLAPSSKSTSGGTAALGCLVKDYFPEPVTVSWNSGALTSGVHTFPAVLQSSGLYSLSSVVTVPSSSLGTQTYICNVNHKPSNTKVDKKVEPKSCDKTHTCPPCPAPELLAGPDVFCFPPKPKDTLMISRTPEVTCVVVDVSHEDPEVKFNWYVDGVEVHNAKTKPREEQYNSTYRVVSVLTVLHQDWLNGKEYKCKVSNKALPLPEECTISKAKGQPREPQVYTLPPSRDELTKNQVSLTCLVKGFYPSDIAVEWESNGQPENNYKTTPPVLDSDGSFFLYSKLTVDKSRWQQGNVFSCSVMHEALHNHYTQKSLSLSPGK
light: DIQMTQSPSSVSASVGDRVTITCKASQIVGSNVAWYQQKPGKAPEPLIYSASYLYSGVPSRFSGSGSGTDFTLTISSLQPEDFATYYCQQYSSHPLTFGQGTKLEIKRTVAAPSVFIFPPSDEQLKSGTASVVCLLNNFYPREAKVQWKVDNALQSGNSQESVTEQDSKDSTYSLSSTLTLSKADYEKHKVYACEVTHQGLSSPVTKSFNRGEC
notes: also called 10D1F.B
Q: What does the source list for B6?
A: Kd (moFcgRIV): 55.4 nM; Kd (moFcRn): 15.2 nM; Kd (His-tagged human HER3 [5]): 0.0222 nM; koff (His-tagged human HER3 [5]): 4.96e-06 s⁻¹; kon (His-tagged human HER3 [5]): 223000 M⁻¹ s⁻¹; Kd (FcgRIIB): 580 nM; Kd (FcgRIIA (H167)): 561 nM; Kd (FcgRIIIA (F158)): 162 nM; Kd (FcgRIIA (R167)): 400 nM; Kd [6]: 82.1 nM; Kd (FcRn): 37.4 nM
